B1: Zinc finger homeobox protein 4, residues 2183 to 2238; numbered along this chain, Q86UP3 (parent)
chain: SSRTRFTDYQLRVLQDFFDTNAYPKDDEIEQLSTVLNLPTRVIVVWFQNARQKARK

Variants of: B1
Experiment: abundance fitness (aPCA) (normalised: wild type 0, dead -1); higher = more abundant; growth selection in yeast, the domain comes from the species named
Settings: Homo sapiens

Abundance fitness, by site and new letter:
Q10: I -0.391, K -0.512, D -0.454, E -0.297, W -0.826, M -0.14, C -0.395, A -0.459, V -0.547, F -0.928, G -0.69, H -0.118, S -0.335, Y -0.787, T -0.176, L -0.736, R -0.657
L11: E 0.095, S 0.138, R -0.26, M -0.061, V -0.024, T -0.063, Y -0.194, H -0.204, P -1.19, C -0.341, F -0.011, G -0.016, I -0.031, N 0.053, A -0.108, D 0.066
F6: I -0.09, H -0.328, T -0.266, P -0.697, N -0.375, K -0.522, V -0.133, M 0.111, Q -0.568, R -0.726, W -0.257, Y -0.124, L -0.122
D16: A -0.065, K -0.108, F -0.806, C -0.32, L -0.602, H -0.193, G 0.093, E 0.014, I -0.644
L14: Q -1.02, C -0.181, V -0.206, N -1.15, T -0.93, F -0.433, W -0.895, M 0.049, Y -1.08, S -0.731, R -0.911, E -1.07, A -0.793, G -0.876, P -0.931, I -0.184
Y9: T 0.167, R 0.11, N 0.057, I -0.351, A 0.167, M 0.025, F 0.261, S 0.14, V -0.038, E 0.081, W 0.02, G 0.062, K 0.318, D -0.128, Q 0.283, C -0.102
T7: Y -0.574, P -0.368, C -0.586, R -0.67, H -0.597, W -0.719, Q -0.27, S -0.014, M -0.278, L -0.384, D -0.081, V -0.299, G -0.333, A -0.14, K -0.455
V13: F -0.056, S -0.068, P -1.02, C -0.181, I -0.001, D 0.079, H 0.203, M 0.44, A -0.012, T 0.013, W -0.377, R 0.079, G 0.047, N -0.064, Y 0.092, Q 0.057
Q15: R -0.107, V -0.095, M 0.058, L -0.036, E -0.139, N -0.158, I -0.141, S -0.004, A -0.05, Y -0.27, G -0.102, P -0.708, F -0.186, W -0.333, T -0.069, D -0.072
D8: F -0.361, Q 0.103, R -0.309, E -0.151, W -0.58, T -0.257, N -0.351, P 0.096, V -0.282, L -0.229, I -0.511, G -0.225, H 0.124, M -0.125, Y -0.662, C -0.136, A -0.106, S -0.315
R12: A -0.263, G -0.147, Q -0.014, L -0.309, Y -0.702, M -0.631, H -0.166, V -0.544, F -0.81, T -0.066, P -0.608, I -0.623, S -0.203, C -0.732, N -0.017

From the Human Domainome abundance scans (Beltran et al. 2025)
